Laboratory results taken from patent publication US20150079112A1 (SAMSUNG ELECTRONICS, published 2015).
Changes are numbered by the printed parent chain.

How the values were obtained:
Assay in all cases: ELISA, coated antibody 1000 nM, 250 ng FLAG-tagged mutant Ang2, anti-FLAG-HRP, OD450
[1] = target: mutant Ang2 protein, A449 substituted with alanine, FLAG-tagged at its N-terminal (human) (UniProt O15123)
[2] = target: T1, mutant Ang2 protein, P419 substituted with alanine, FLAG-tagged at its N-terminal (human, UniProt O15123 19-496, limits assumed)
T1 sequence: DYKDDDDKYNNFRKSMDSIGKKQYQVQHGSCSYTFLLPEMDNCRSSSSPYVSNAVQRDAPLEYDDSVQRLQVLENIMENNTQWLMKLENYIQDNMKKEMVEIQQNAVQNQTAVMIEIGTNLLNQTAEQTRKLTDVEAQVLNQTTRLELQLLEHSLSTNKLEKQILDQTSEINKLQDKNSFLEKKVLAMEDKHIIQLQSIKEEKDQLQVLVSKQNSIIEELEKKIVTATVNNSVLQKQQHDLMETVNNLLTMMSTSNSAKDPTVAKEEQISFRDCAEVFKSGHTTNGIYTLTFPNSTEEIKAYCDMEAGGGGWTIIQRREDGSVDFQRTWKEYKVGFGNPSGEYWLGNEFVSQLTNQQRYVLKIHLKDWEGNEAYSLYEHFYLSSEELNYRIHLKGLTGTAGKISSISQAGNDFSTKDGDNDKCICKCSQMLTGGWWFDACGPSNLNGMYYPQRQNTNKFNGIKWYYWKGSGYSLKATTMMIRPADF
Description: (§1) Each well of a 96-well MaxiSorp™ flat-bottom plate (Nunc) was coated with 50 ul (microliter) of 1000 nM antibody. Then, the plate was washed five times with 0.05% (v/v) Tween-20-containing PBS (PBST) and blocked with 1% (v/v) BSA-containing PBS at a room temperature for 2 hours. 250 ng of each mutant Ang2 protein obtained by substituting S417, Q418, P419, N421, I434, D448, A449, P452, Y460, N467, K468, or F469 residue of Ang2 protein tagged with a FLAG sequence ([…], Sigma) at its N-terminal with alanine was added to each well of the plate, which was then allowed to react at a room temperature for 2 hours.
(§2) The plate was washed five times with 0.05% (v/v) Tween-20 containing PBS, reacted with an anti-FLAG antibody (SIGMA) conjugated with HRP which was diluted in 1% (v/v) BSA-containing PBS at a ratio of 1:5,000 (v/v) at a room temperature for 1 hour, and washed five times with 0.1% (v/v) Tween-20-containing PBS.
(§3) Finally, 50 ul of TMB substrates (Cell signaling) was added to each well of the plate to induce color development at a room temperature for 3 min. and the reaction was ceased by the addition of 50 ul of Stop solution (Cell signaling) and then, OD450 values were measured on a plate reader (Molecular Devices). By comparing binding affinities with mutated Ang2 to those of unmutated Ang2, each epitope of Ang2 antibodies was identified. The thus obtained measurement results of the binding affinities (%) with mutant Ang2 against the binding affinity with the native Ang2 are shown in the following Table 8.

[3] = target: T2, mutant Ang2 protein, D448 substituted with alanine, FLAG-tagged at its N-terminal (human, UniProt O15123 19-496, limits assumed)
T2 sequence: T1 sequence with A409P, D438A
Description: as §1, §2, §3

[4] = target: T3, mutant Ang2 protein, K468 substituted with alanine, FLAG-tagged at its N-terminal (human, UniProt O15123 19-496, limits assumed)
T3 sequence: T1 sequence with A409P, K458A
Description: as §1, §2, §3

B1: SAIT-ANG2-AB-m10D6 (antibody, V domains shown)
VH: DVQLQESGPGLVKPSQSLSLTCTVTGYSITSDYAWNWIRQFPGNKLEWMGYINYSGNTDYNPSLKSRSSITRDTSKNQFFLQLNSVTTGDTATYYCARGNFEGAMDYWGQGTSVTVSS
VL: SIVMTQTPKFLLVSAGDRVTITCKASQSVSNDVAWYQQKPGQSPKLLIYYASNRYPGVPDRFTGSGYGTDFTFTISTVQAEDLAVYFCQQDYSSPWTFGGGTKLEIK
notes: also called antibody 10D6; anti-Ang2 antibody (10D6)
**Q.** Which results are given for B1?
**A.** binding affinity (%) with mutant Ang2 against the binding affinity with the native Ang2 [1]: 97.9%; binding affinity (%) with mutant Ang2 against the binding affinity with the native Ang2 [2]: 41.1%; binding affinity (%) with mutant Ang2 against the binding affinity with the native Ang2 [3]: 105%; binding affinity (%) with mutant Ang2 against the binding affinity with the native Ang2 [4]: 110%
